The labels stand for the following.
B1: Luc-KD (KD–IDL of Polo, amino acids 1–349, N-terminally fused to RLucII), KD^WT [Drosophila] / PBD–GFP (PBD of Polo, amino acids 350–576, C-terminally fused to GFP10) [Drosophila] (parent)
chain 1: MAAKPEDKSTDIPDRLVDINQRKTYKRMRFFGKGGFAKCYEIIDVETDDVFAGKIVSKKLMIKHNQKEKTAQEITIHRSLNHPNIVKFHNYFEDSQNIYIVLELCKKRSMMELHKRRKSITEFECRYYIYQIIQGVKYLHDNRIIHRDLKLGNLFLNDLLHVKIGDFGLATRIEYEGERKKTLCGTPNYIAPEILTKKGHSFEVDIWSIGCVMYTLLVGQPPFETKTLKDTYSKIKKCEYRVPSYLRKPAADMVIAMLQPNPESRPAIGQLLNFEFLKGSKVPMFLPSSCLTMAPRIGSNDTIEDSMHRKPLMEMNGIRPDDTRLESTFLKANLHDAITASAQVCRHSE
chain 2: DYRSDIESLYQQLTNLINGKPRILQGNLGDENTDPAAQPLFWISKWVDYSDKYGFGYQLCDEGIGVMFNDTTKLILLPNQINVHFIDKDGKETYMTTTDYCKSLDKKMKLLSYFKRYMIEHLVKAGANNVNIESDQISRMPHLHSWFRTTCAVVMHLTNGSVQLNFSDHMKLILCPRMSAITYMDQEKNFRTYRFSTIVENGVSKDLYQKIRYAQEKLRKMLEKMFT

The first assay covers variants of B1. The experiment in a line: BRET. The following applies: with PBD–GFP (PBD of Polo, amino acids 350–576, C-terminally fused to GFP10) [Drosophila]; live HEK293T cells; fixed amount of Luc-KD vector, increasing PBD–GFP vector; Map205 fragment co-transfected; p-value 0.4037; parent: 0.197.
As to chain 1 MAAKPEDKSTDIPDRLVDINQRKTYKRMRFFGKGGFAKCYEIIDVETDDVFAGKIVSKKLMIKHNQKEKTAQEITIHRSLNHPNIVKFHNYFEDSQNIYIVLELCKKRSMMELHKRRKSITEFECRYYIYQIIQGVKYLHDNRIIHRDLKLGNLFLNDLLHVKIGDFGLATRIEYEGERKKALCGTPNYIAPEILTKKGHSFEVDIWSIGCVMYTLLVGQPPFETKTLKDTYSKIKKCEYRVPSYLRKPAADMVIAMLQPNPESRPAIGQLLNFEFLKGSKVPMFLPSSCLTMAPRIGSNDTIEDSMHRKPLMEMNGIRPDDTRLESTFLKANLHDAITASAQVCRHSE [chain 1 T182A], the screen value came to 0.148 GFP/Luc.

The assay is the same for the next values; noted with them: with PBD–GFP (PBD of Polo, amino acids 350–576, C-terminally fused to GFP10) [Drosophila]; live HEK293T cells; fixed amount of Luc-KD vector, increasing PBD–GFP vector; Map205 fragment co-transfected; p-value 0.0374; parent: 0.197.
Consider chain 1 MAAKPEDKSTDIPDRLVDINQRKTYKRMRFFGKGGFAKCYEIIDVETDDVFAGKIVSKKLMIKHNQKEKTAQEITIHRSLNHPNIVKFHNYFEDSQNIYIVLELCKKRSMMELHKRRKSITEFECRYYIYQIIQGVKYLHDNRIIHRDLKLGNLFLNDLLHVKIGDFGLATRIEYEGERKKDLCGTPNYIAPEILTKKGHSFEVDIWSIGCVMYTLLVGQPPFETKTLKDTYSKIKKCEYRVPSYLRKPAADMVIAMLQPNPESRPAIGQLLNFEFLKGSKVPMFLPSSCLTMAPRIGSNDTIEDSMHRKPLMEMNGIRPDDTRLESTFLKANLHDAITASAQVCRHSE [chain 1 T182D], for which the screen value turned out to be 0.412 GFP/Luc.

For the origin of these results see article PMC5700101.
